In patent US20080286311A1:

Legend:
[1] = molecular target: basophils from house dust mite allergic patients
[2] = molecular target: basophils (granulocytes) from Phl p 12-allergic patients
[3] = molecular target: serum IgE of profilin-sensitised (Phl p 12-allergic) patients; test: fluid phase inhibition: sera of six patients preincubated with 10 µg MP12, then ELISA on plate-bound Phl p 12
[4] = molecular target: serum IgE of profilin-sensitised (Phl p 12-allergic) patients; test: fluid phase inhibition: sera of six patients preincubated with 10 µg Phl p 12, then ELISA on plate-bound Phl p 12

Molecule “rDer p 2 hybrid (aa 54-129+1-53) (from UniProt P49278)” has a CD 203c expression on basophils [1] of 10 fold reduced.

B1: MP12 (reshuffled Phl p 12 derivative) (protein)
chain: MEPGAVIRGKKGAGGITIKKTGQALVGIYDEPMTPGQCNMVVERLGDYLVEQGMMSWQTYVDEHLMCEIEGHHLASAAILGHDGTVWAQSADFPQFKPEEITGIMKDFDEPGHLAPTGMFVAGAKYMVIQGHHHHHH
In the case of B1, the histamine release (fold reduction) [2] is reported as 1000 and the mean % inhibition of IgE binding to Phl p 12 [3] is reported as 31.2%.

B2: Phl p 12 wild-type (timothy grass pollen profilin) (protein)
chain: MSWQTYVDEHLMCEIEGHHLASAAILGHDGTVWAQSADFPQFKPEEITGIMKDFDEPGHLAPTGMFVAGAKYMVIQGEPGAVIRGKKGAGGITIKKTGQALVVGIYDEPMTPGQCNMVVERLGDYLVEQGM
Molecule B2 has a mean % inhibition of IgE binding to Phl p 12 [4] of 86%.
